# Test results published in patent US6653282B1, “Peptide Compositions which induce immune tolerance and methods of use” (priority 1996, dated 2003).
# Bridge positions count the residues as written; N and C are the ends. Square brackets hold non-standard residues; d marks the D form. Ends that are not written are not given here. Pen = CC(C)(S)[C@H](N)C(=O)O
# Experiments:
# [1] = target: leukocyte function-associated antigen (LFA-1) (human, UniProt P20701 26-1170; P05107 23-769); assay: cell-based or functional assay
# [2] = target: intercellular adhesion molecule (ICAM-1) (human, UniProt P05362 28-532); assay: cell-based or functional assay
# Chain of intercellular adhesion molecule (ICAM-1) (P05362 28-532): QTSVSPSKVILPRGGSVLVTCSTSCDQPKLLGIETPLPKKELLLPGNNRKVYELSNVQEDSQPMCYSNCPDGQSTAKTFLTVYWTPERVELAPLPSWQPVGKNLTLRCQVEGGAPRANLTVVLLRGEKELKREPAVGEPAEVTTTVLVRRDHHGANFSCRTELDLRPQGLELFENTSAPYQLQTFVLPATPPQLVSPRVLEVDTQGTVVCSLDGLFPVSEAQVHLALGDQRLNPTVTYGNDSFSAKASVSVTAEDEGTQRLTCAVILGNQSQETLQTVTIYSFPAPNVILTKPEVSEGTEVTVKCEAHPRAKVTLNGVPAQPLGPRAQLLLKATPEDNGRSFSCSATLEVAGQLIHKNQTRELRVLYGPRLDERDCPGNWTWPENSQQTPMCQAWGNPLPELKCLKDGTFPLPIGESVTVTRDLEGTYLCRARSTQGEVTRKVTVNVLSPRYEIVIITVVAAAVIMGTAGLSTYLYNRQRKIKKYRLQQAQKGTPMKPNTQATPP
# Chain of leukocyte function-associated antigen (LFA-1) (P20701 26-1170, chain 1 of 2): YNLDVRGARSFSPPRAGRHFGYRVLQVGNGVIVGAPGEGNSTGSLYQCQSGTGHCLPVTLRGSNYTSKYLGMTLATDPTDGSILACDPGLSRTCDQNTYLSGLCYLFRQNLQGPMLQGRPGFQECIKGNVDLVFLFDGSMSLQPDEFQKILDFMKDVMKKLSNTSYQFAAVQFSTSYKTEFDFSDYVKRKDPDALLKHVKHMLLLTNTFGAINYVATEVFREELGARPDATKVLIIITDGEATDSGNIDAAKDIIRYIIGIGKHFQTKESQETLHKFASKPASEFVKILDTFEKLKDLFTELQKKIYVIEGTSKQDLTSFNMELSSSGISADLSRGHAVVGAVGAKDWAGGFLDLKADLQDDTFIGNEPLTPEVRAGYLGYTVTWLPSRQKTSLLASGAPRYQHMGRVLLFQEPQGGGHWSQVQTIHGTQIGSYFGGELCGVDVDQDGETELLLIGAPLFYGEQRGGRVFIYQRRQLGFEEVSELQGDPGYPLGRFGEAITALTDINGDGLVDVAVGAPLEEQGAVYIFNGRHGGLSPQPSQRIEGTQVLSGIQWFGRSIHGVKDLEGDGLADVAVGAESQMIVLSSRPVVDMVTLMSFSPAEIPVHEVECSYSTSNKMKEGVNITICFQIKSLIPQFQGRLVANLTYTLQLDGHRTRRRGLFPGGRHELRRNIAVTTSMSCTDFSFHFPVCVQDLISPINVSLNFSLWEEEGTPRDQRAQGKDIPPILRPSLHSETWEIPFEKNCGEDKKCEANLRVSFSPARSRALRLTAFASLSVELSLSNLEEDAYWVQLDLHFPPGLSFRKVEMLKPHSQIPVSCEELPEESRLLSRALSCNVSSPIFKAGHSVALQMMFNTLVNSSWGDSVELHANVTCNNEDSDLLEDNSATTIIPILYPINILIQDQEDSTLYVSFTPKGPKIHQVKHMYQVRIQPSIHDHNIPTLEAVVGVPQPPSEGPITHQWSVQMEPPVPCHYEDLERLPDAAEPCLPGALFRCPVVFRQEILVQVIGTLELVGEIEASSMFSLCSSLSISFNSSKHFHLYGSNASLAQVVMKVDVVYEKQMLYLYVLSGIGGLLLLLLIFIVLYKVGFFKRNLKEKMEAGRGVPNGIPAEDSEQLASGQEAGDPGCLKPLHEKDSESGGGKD
# Chain of leukocyte function-associated antigen (LFA-1) (P05107 23-769, chain 2 of 2): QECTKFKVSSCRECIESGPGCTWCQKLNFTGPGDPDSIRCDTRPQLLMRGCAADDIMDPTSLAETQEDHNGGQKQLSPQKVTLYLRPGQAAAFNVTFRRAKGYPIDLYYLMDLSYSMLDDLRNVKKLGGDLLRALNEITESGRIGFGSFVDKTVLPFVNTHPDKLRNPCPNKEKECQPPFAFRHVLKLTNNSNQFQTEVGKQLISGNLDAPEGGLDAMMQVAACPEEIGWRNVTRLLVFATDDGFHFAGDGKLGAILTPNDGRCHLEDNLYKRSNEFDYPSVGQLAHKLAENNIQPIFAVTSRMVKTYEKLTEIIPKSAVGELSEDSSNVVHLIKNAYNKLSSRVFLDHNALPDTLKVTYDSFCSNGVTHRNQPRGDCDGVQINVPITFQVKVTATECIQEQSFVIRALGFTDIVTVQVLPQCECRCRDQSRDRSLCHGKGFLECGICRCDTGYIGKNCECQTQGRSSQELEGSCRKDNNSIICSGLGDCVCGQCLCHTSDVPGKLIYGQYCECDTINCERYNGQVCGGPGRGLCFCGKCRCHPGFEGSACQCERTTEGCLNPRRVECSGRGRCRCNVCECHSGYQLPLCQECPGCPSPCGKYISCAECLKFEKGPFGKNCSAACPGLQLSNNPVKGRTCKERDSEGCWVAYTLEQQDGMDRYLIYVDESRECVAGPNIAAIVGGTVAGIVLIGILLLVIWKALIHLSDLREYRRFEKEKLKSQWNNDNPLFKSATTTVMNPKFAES
Binder,Clumping Index [1],Clumping Index [2]
QTSVSPSKVILPRGGSVLVTG [IB],56 clumping index (0-100),–
[Pen]AKDIIYIIGIC (disulfide 1-12; not fully specified) [cLAB-R],–,77 clumping index (0-100)
GVDVDQDGETELIGAPLFYGEQRG [LAB.2],–,48 clumping index (0-100)
[Pen]GVDVDQDGETC (disulfide 1-12; not fully specified) [cLAB.2-L],–,50 clumping index (0-100)
DLSYSLDDLRNVKKLGGDLLRALNE [LBE],–,73 clumping index (0-100)
[Pen]DLSYSLDDLRC (disulfide 1-12; not fully specified) [cLBE-L],–,75 clumping index (0-100)
[Pen]DLRNVKKLGGC (disulfide 1-12; not fully specified) [cLBE-C],–,82 clumping index (0-100)
[Pen]GGLLRALNEC (disulfide 1-11; not fully specified) [cLBE-R],–,100 clumping index (0-100)
[Pen]PSKVILPRGGC (disulfide 1-12; not fully specified) [cIB-C],61 clumping index (0-100),–
CLPRGGSVLVTC (disulfide 1-12; not fully specified) [cIB-R],73 clumping index (0-100),–
DQPKLLGIETPLPKKELLLPGNNRK [IE],63 clumping index (0-100),–

# More lines, now with the values ahead:
Clumping Index [1],Clumping Index [2],Binder
–,75 clumping index (0-100),ITDGEATDSGNIDAAKDIIYIIGI [LAB]
–,78 clumping index (0-100),XITDGEATDSGC (not fully specified; cyclic: disulfide bridge between the amino-terminal penicillamine (Xaa in the Sequence Listing) or cysteine and the carboxy-terminal cysteine) [cLAB-L]
–,80 clumping index (0-100),[Pen]DSGNIDAAKDC (disulfide 1-12; not fully specified) [cLAB-C]
–,100 clumping index (0-100),ENLARLLDGGLKKVNRLDDLSYSLD [EBL]
61 clumping index (0-100),–,[Pen]QTSVSPSKVIC (disulfide 1-12; not fully specified) [cIB-L]
23 clumping index (0-100),–,[Pen]ETPLPKKELLC (disulfide 1-12; not fully specified) [cIE-C]
